B1: ribosomal protein rpS30 (yeast 40S subunit) (natural protein, UniProt P0CX33 1-63, looked up)
chain: MAKVHGSLARAGKVKSQTPKVEKTEKPKKPKGRAYKRLLYTRRFVNVTLVNGKRRMNPGPSVQ
B2: ribosomal protein rpP0 (yeast 60S subunit) (natural protein, UniProt P05317 1-312, looked up)
chain: MGGIREKKAEYFAKLREYLEEYKSLFVVGVDNVSSQQMHEVRKELRGRAVVLMGKNTMVRRAIRGFLSDLPDFEKLLPFVKGNVGFVFTNEPLTEIKNVIVSNRVAAPARAGAVAPEDIWVRAVNTGMEPGKTSFFQALGVPTKIARGTIEIVSDVKVVDAGNKVGQSEASLLNLLNISPFTFGLTVVQVYDNGQVFPSSILDITDEELVSHFVSAVSTIASISLAIGYPTLPSVGHTLINNYKDLLAVAIAASYHYPEIEDLVDRIENPEKYAAAAPAATSAASGDAAPAEEAAAEEEEESDDDMGFGLFD
B3: Dom34 (Pelota of Saccharomyces cerevisiae) (natural protein, S. cerevisiae, UniProt P33309 1-386, looked up)
chain: MKVISLKKDSFNKGGAVITLLPEDKEDLFTVYQIVDKDDELIFKKKFTSKLDEAGKKKSTDLVKLKIKVISEDFDMKDEYLKYKGVTVTDESGASNVDIPVGKYLSFTLDYVYPFTIIKQNFNKFMQKLLNEACNIEYKSDTAAVVLQEGIAHVCLVTSSSTILKQKIEYSMPKKKRTTDVLKFDEKTEKFYKAIYSAMKKDLNFDKLKTIILCSPGFYAKILMDKIFQYAEEEHNKKILDNKGMFFIAHCSTGYLQGINEVLKNPLYASKLQDTKYSKEIMVMDEFLLHLNKDDDKAWYGEKEVVKAAEYGAISYLLLTDKVLHSDNIAQREEYLKLMDSVESNGGKALVLSTLHSLGEELDQLTGIACILKYPLPDLDEDDGEE

How the values were obtained:
[1] = molecular target: B3; experiment: cryo-EM structure
[2] = molecular target: Rli1 (ABCE1 of Saccharomyces cerevisiae) (S. cerevisiae, UniProt Q03195 1-608); experiment: cryo-EM structure
Rli1 (ABCE1 of Saccharomyces cerevisiae), sequence (Q03195 whole entry): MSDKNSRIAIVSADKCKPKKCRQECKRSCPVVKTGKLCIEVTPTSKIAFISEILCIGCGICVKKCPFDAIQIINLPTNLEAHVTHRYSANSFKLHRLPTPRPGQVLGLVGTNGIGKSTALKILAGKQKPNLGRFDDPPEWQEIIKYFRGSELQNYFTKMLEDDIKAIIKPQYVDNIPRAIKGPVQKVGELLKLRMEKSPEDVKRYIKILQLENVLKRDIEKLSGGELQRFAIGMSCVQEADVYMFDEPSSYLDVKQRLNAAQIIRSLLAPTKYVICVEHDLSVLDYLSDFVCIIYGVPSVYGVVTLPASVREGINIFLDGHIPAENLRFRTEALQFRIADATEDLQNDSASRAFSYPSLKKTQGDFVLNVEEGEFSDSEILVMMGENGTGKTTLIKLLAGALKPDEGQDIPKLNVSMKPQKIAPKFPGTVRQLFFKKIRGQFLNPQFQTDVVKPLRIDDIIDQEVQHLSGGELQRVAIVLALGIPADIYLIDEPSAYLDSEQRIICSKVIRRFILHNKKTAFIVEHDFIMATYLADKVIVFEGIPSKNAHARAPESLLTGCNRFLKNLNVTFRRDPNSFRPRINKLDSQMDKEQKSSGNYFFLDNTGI

binding result [1] | binding result [2] | Binder
binds | – | B1
– | binds | B2
– | binds | B3

— paper PMC6878762 (Nature, 2012)
